Results published in paper PMC9911596 (Nature Communications, 2023).

T1: Vtc1/Vtc3/Vtc4 complex (VTC complex) (Saccharomyces cerevisiae, UniProt P47075+Q02725)
T1 construct: full-length subunits co-expressed in Expi293F; Vtc1 C-terminal HA, Vtc3 N-terminal 3xFlag, Vtc4 C-terminal 2xStrep; detergent-purified; 3:1:1 pentamer; with Vacuolar transporter chaperone complex subunit 1
T1 sequence (P47075 1-721): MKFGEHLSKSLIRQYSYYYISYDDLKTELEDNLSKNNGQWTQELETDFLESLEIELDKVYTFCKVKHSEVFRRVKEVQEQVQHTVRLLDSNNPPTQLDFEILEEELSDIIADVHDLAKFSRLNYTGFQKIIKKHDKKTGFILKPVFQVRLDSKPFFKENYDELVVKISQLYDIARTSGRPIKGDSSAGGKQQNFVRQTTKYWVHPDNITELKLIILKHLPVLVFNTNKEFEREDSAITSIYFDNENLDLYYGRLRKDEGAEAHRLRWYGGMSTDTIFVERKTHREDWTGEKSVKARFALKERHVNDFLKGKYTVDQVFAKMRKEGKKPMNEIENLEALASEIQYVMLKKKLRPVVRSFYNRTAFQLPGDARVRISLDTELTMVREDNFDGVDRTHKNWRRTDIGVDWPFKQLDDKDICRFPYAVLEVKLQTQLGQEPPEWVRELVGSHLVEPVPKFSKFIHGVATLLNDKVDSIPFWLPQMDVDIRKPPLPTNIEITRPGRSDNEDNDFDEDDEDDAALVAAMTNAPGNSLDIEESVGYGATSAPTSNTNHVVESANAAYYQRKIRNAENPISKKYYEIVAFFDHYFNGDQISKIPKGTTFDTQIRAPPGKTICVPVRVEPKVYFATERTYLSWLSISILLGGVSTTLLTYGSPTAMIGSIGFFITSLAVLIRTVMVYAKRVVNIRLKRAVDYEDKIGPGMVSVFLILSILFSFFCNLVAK
T1 sequence (Q02725 1-835): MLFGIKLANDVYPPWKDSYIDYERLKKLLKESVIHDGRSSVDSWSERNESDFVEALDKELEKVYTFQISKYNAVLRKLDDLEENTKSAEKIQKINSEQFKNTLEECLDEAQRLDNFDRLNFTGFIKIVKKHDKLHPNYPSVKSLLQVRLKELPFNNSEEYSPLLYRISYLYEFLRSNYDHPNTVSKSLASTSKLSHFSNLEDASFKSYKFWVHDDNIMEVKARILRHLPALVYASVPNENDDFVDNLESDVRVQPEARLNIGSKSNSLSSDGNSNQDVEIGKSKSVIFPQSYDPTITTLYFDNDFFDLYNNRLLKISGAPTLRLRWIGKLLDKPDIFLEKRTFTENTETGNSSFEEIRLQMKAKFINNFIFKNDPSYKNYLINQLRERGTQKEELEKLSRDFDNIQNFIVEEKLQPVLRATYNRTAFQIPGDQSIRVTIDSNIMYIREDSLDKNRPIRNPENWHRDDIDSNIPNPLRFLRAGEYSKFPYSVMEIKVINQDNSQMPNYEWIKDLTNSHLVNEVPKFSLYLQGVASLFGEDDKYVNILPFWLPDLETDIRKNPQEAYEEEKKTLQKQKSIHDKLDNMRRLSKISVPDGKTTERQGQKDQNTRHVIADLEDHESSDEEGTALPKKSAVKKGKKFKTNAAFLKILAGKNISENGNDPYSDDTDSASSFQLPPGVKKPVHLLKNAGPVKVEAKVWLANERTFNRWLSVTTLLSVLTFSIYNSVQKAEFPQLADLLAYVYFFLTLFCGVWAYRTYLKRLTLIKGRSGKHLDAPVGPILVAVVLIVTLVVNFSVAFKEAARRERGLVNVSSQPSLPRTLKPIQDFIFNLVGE
T1 sequence (P40046 2-129 partner): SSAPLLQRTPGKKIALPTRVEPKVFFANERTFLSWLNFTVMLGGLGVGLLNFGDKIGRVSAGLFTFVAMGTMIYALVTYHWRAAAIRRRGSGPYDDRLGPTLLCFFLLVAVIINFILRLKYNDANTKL

T2: Vtc3 (Baker's yeast, UniProt Q02725 1-835)
T2 construct: Vtc3, yeast, UniProt Q02725; codon-optimized DNA in the pMlink vector; source: Expi293F cells, transiently cotransfected with the Vtc1 and Vtc4 plasmids; purified as part of the VTC complex (anti-Flag resin, Strep-Tactin resin; SEC for the cryo-EM sample); not shown: 3×Flag, N-terminal, kept
T2 sequence: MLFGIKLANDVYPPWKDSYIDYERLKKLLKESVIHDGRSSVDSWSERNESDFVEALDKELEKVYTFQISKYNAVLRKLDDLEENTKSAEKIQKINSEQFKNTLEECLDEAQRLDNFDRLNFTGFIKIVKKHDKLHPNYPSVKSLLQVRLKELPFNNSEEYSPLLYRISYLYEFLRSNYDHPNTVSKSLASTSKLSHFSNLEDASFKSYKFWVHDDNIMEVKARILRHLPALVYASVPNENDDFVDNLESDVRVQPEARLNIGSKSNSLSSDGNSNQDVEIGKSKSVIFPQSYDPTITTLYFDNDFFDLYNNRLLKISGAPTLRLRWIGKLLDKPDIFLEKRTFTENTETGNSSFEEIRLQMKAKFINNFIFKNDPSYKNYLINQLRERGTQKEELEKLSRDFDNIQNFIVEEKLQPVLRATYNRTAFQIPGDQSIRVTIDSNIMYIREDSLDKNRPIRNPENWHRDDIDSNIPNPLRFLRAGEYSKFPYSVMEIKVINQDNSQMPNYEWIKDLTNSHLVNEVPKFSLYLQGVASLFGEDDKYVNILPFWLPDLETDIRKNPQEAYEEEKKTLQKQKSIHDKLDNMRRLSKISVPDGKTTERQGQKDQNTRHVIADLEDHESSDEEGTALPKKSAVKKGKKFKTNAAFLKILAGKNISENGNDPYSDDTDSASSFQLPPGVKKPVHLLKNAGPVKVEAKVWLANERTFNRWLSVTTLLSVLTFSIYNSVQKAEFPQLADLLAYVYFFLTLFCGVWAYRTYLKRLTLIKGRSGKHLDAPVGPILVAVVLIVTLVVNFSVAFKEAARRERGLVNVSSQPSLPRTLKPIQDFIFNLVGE

B1: Vtc4_(R264A/R266A/E426N) (natural protein, Baker's yeast)
chain: KFGEHLSKSLIRQYSYYYISYDDLKTELEDNLSKNNGQWTQELETDFLESLEIELDKVYTFCKVKHSEVFRRVKEVQEQVQHTVRLLDSNNPPTQLDFEILEEELSDIIADVHDLAKFSRLNYTGFQKIIKKHDKKTGFILKPVFQVRLDSKPFFKENYDELVVKISQLYDIARTSGRPIKGDSSAGGKQQNFVRQTTKYWVHPDNITELKLIILKHLPVLVFNTNKEFEREDSAITSIYFDNENLDLYYGRLRKDEGAEAHALAWYGGMSTDTIFVERKTHREDWTGEKSVKARFALKERHVNDFLKGKYTVDQVFAKMRKEGKKPMNEIENLEALASEIQYVMLKKKLRPVVRSFYNRTAFQLPGDARVRISLDTELTMVREDNFDGVDRTHKNWRRTDIGVDWPFKQLDDKDICRFPYAVLNVKLQTQLGQEPPEWVRELVGSHLVEPVPKFSKFIHGVATLLNDKVDSIPFWLPQMDVDIRKPPLPTNIEITRPGRSDNEDNDFDEDDEDDAALVAAMTNAPGNSLDIEESVGYGATSAPTSNTNHVVESANAAYYQRKIRNAENPISKKYYEIVAFFDHYFNGDQISKIPKGTTFDTQIRAPPGKTICVPVRVEPKVYFATERTYLSWLSISILLGGVSTTLLTYGSPTAMIGSIGFFITSLAVLIRTVMVYAKRVVNIRLKRAVDYEDKIGPGMVSVFLILSILFSFFCNLVAK
notes: Vtc4, yeast, UniProt P47075; codon-optimized DNA in the pMlink vector; three substitutions in the TTM domain; also called catalytically impaired Vtc4; source: Expi293F cells, transiently cotransfected with the Vtc1 and Vtc3 plasmids; purified as part of the VTC complex with 1 mM InsP6 (anti-Flag resin, Strep-Tactin resin, SEC); not shown: 2×Strep, C-terminal, kept

Columns and labels:
[1] = biological target: T1, Vtc1/Vtc3/Vtc4 complex (VTC complex); test: polyP synthesis, TBE-PAGE and DAPI; type: biochemical; details: 15 mM ATP, 10 mM MgCl2, 1 mM MnCl2, 0.5 mM pyrophosphate, InsP6, 27 °C, 4 h
[2] = biological target: T2, Vtc3; test: cryo-EM structure; Vtc1/Vtc3/Vtc4_(R264A/R266A/E426N) complex co-expressed in Expi293F and purified with 1 mM InsP6, 0.02% GDN, 25 mM Tris-HCl pH 8.0, 150 mM NaCl; 3.0 Å; details: both partners purified
[3] = biological target: B1; test: as above; details: both partners purified
[4] = biological target: the molecule itself; test: as above

| Molecule | polyP synthesis, TBE-PAGE and DAPI [1] | stoichiometry N [2] | stoichiometry N [3] | stoichiometry N [4] |
| --- | --- | --- | --- | --- |
| Nc1ncnc2c1ncn2[C@@H]1O[C@H](COP(=O)(O)OP(=O)(O)OP(=O)(O)O)[C@@H](O)[C@H]1O [ATP] | we incubated VTC complex with ATP and InsP6 |  |  |  |
| B1 |  | 1 |  |  |
| Vtc1 (natural protein, Baker's yeast, Vtc1, yeast, UniProt P40046; codon-optimized DNA in the pMlink vector; Three copies of Vtc1 stand in the Vtc1/Vtc3/Vtc4 complex (3:1:1); also called Vtc1A; Vtc1B; source: Expi293F cells, transiently cotransfected with the Vtc3 and Vtc4 plasmids; purified as part of the VTC complex (anti-Flag resin, Strep-Tactin resin; SEC for the cryo-EM sample)) SSAPLLQRTPGKKIALPTRVEPKVFFANERTFLSWLNFTVMLGGLGVGLLNFGDKIGRVSAGLFTFVAMGTMIYALVTYHWRAAAIRRRGSGPYDDRLGPTLLCFFLLVAVIINFILRLKYNDANTKL |  | 3 | 3 | 3 |
